Patent US20260217814 (published 2026)

T1: cynomolgus serum albumin (cynomolgus)
T1 chain: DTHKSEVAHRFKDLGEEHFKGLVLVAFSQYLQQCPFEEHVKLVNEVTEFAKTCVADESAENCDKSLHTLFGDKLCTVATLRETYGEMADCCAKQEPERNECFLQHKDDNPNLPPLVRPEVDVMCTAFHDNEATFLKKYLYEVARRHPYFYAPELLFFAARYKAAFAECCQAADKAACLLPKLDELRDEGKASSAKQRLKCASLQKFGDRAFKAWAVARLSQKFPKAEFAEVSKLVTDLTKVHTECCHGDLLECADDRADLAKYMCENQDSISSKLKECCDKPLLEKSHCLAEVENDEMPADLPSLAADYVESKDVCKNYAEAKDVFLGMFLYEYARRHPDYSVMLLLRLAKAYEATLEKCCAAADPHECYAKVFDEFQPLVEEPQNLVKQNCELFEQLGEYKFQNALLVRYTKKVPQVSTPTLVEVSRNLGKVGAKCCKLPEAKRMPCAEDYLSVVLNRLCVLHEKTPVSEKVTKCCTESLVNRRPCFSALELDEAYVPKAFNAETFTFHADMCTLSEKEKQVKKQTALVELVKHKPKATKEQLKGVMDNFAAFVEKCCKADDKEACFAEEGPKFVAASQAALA

T2: cynomolgus IL-17A (cynomolgus)
T2 chain: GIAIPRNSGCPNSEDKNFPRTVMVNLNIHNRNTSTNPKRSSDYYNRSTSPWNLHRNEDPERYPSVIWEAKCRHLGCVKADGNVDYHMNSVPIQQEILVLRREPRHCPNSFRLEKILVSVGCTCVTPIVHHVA

T3: human IL-17A (human)
T3 chain: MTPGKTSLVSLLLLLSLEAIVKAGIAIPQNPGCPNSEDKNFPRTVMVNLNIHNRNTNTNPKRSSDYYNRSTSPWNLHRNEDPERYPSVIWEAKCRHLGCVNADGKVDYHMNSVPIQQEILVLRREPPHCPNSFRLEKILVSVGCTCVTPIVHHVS


Assays:
human serum albumin [1] = biological target: T4, human serum albumin (human, UniProt P02768); assay: SPR, pH 5.5
human serum albumin [2] = biological target: T4, human serum albumin; assay: SPR, pH 7.4
cynomolgus serum albumin [3] = biological target: T1, cynomolgus serum albumin; assay: SPR, pH 5.5
cynomolgus serum albumin [4] = biological target: T1, cynomolgus serum albumin; assay: SPR, pH 7.4
cynomolgus IL-17A = biological target: T2, cynomolgus IL-17A; assay: SPR
human IL-17A = biological target: T3, human IL-17A; assay: SPR

| Kd (human serum albumin [1]) | Kd (human serum albumin [2]) | Kd (cynomolgus serum albumin [3]) | Kd (cynomolgus serum albumin [4]) | Kd (cynomolgus IL-17A) | Kd (human IL-17A) | Binder |
| --- | --- | --- | --- | --- | --- | --- |
| 1.66 nM | 2.69 nM | 0.795 nM | 2.47 nM |  |  | A5 HSA arm (antibody) chain 1: EVQLVESGGGLVQPGGSLRLSCAASGIDFSTYGISWVRQAPGKGLEWIAYIYPDYGITDYASWVNGRFTISLDNAQNTVYLQMNSLRAEDTAVYYCARSGSYYSRGWGAHYFNLWGQGTLVTVSSASTKGPSVFPLAPSSKSTSGGTAALGCLVKDYFPEPVTVSWNSGALTSGVHTFPAVLQSSGLYSLSSVVTVPSSSLGTQTYICNVNHKPSNTKVDKKVEPKSCGGGGSGGGGSDIQMTQSPSSLSASVGDRVTITCQASQTINYWLAWYQQKPGKAPKLLIYRASTLASGVPSRFSGSGSGTDFTLTISSLQPEDFATYYCQNYYYSTSRSYGFGGGTKLTVLGGGGGSGGGGSGGGGSGGGGSEVQLVESGGGLVQPGGSLRLSCAASGFSFSSDYWMCWVRQAPGKGLEWIGCIYAGDVDDTDYASWARGRFTISRDNSKNTVYLQMNSLRAEDTAVYYCARVDGFDITYFDLWGQGTLVTVSS chain 2: DIQMTQSPSSLSASVGDRVTINCQASESISSWLAWYQQKPGKRPKLLIYKASTLASGVPSRFSGSGSGTDYTLTISSLQPEDFATYYCQGYYLDSSVDDNVFGGGTKLTVLGRTRTVAAPSVFIFPPSDEQLKSGTASVVCLLNNFYPREAKVQWKVDNALQSGNSQESVTEQDSKDSTYSLSSTLTLSKADYEKHKVYACEVTHQGLSSPVTKSFNRGECGGGGSGGGGSDIQMTQSPSSLSASVGDRVTITCQSSESVYSNNQLSWYQQKPGQPPKLLIYDASDLASGVPSRFSGSGSGTDFTLTISSLQPEDFATYYCAGGFSSSSDTAFGGGTKLTVLGGGGGSGGGGSGGGGSGGGGSEVQLVESGGGLVQPGGSLRLSCAASGFSLSSNAMGWVRQAPGKGLEYIGIISVGGFTYYASWAKGRFTISRDNSKNTVYLQMNSLRAEDTATYFCARDRHGGDSSGAFYLWGQGTLVTVSS |
|  |  |  |  | 0.523 nM | 0.575 nM | A5 IL-17A arm (antibody) chain 1: EVQLVESGGGLVQPGGSLRLSCAASGIDFSTYGISWVRQAPGKGLEWIAYIYPDYGITDYASWVNGRFTISLDNAQNTVYLQMNSLRAEDTAVYYCARSGSYYSRGWGAHYFNLWGQGTLVTVSSASTKGPSVFPLAPSSKSTSGGTAALGCLVKDYFPEPVTVSWNSGALTSGVHTFPAVLQSSGLYSLSSVVTVPSSSLGTQTYICNVNHKPSNTKVDKKVEPKSCGGGGSGGGGSDIQMTQSPSSLSASVGDRVTITCQASQTINYWLAWYQQKPGKAPKLLIYRASTLASGVPSRFSGSGSGTDFTLTISSLQPEDFATYYCQNYYYSTSRSYGFGGGTKLTVLGGGGGSGGGGSGGGGSGGGGSEVQLVESGGGLVQPGGSLRLSCAASGFSFSSDYWMCWVRQAPGKGLEWIGCIYAGDVDDTDYASWARGRFTISRDNSKNTVYLQMNSLRAEDTAVYYCARVDGFDITYFDLWGQGTLVTVSS chain 2: DIQMTQSPSSLSASVGDRVTINCQASESISSWLAWYQQKPGKRPKLLIYKASTLASGVPSRFSGSGSGTDYTLTISSLQPEDFATYYCQGYYLDSSVDDNVFGGGTKLTVLGRTRTVAAPSVFIFPPSDEQLKSGTASVVCLLNNFYPREAKVQWKVDNALQSGNSQESVTEQDSKDSTYSLSSTLTLSKADYEKHKVYACEVTHQGLSSPVTKSFNRGECGGGGSGGGGSDIQMTQSPSSLSASVGDRVTITCQSSESVYSNNQLSWYQQKPGQPPKLLIYDASDLASGVPSRFSGSGSGTDFTLTISSLQPEDFATYYCAGGFSSSSDTAFGGGTKLTVLGGGGGSGGGGSGGGGSGGGGSEVQLVESGGGLVQPGGSLRLSCAASGFSLSSNAMGWVRQAPGKGLEYIGIISVGGFTYYASWAKGRFTISRDNSKNTVYLQMNSLRAEDTATYFCARDRHGGDSSGAFYLWGQGTLVTVSS |
